In article PMC6160412, “Structural insights into modulation and selectivity of transsynaptic neurexin–LRRTM interaction” (Nature Communications, 2018):
Numbering of substitutions follows the chain as printed. Numbers in names are those of the source. Each block holds one binder with its values, some of them ahead of it.

Legend:
Details in all cases: both partners purified
[1] = biological target: T1, human LRRTM2 LRR domain, wild type (human, UniProt O43300 34-371); test: SPR; Biacore T200; wild-type or mutant LRRTM immobilised on a CM5 chip by amine coupling; Nrxn1β as analyte in two-fold dilutions from 40 µM (from 160 µM for +S4 and R206A); 25 °C; 20 mM Hepes-NaOH pH 7.5, 150 mM NaCl, 2 mM CaCl2, 0.005% Tween-20, 0.5 g/L BSA; equilibrium KD
T1 construct: signal peptide in the construct; human LRRTM2 LRR domain, residues 1-371 cloned (residues 34-371 are named for the crystallised protein); Secreted with its own signal peptide; the mature protein probably begins at residue 34, as in the crystallised protein; also called LRRTM2^WT; hLRRTM2; source: Expi293F, transiently expressed, purified from culture medium (Ni-NTA, SEC)
T1 sequence (looked up): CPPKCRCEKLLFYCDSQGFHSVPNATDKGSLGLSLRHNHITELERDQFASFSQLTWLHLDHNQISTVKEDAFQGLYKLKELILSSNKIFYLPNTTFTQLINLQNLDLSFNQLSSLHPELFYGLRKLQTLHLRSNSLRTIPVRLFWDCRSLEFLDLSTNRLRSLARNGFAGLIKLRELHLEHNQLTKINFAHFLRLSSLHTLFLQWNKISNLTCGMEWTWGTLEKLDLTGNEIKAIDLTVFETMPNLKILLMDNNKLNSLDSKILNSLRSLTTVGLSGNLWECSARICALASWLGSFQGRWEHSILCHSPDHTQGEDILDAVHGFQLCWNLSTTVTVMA

[2] = biological target: T2, human LRRTM2 LRR domain, F357Y mutant (human, UniProt O43300 34-371, F357Y); test: as above
T2 construct: signal peptide in the construct; human LRRTM2 LRR domain, residues 1-371 cloned, with F357Y; also called LRRTM2^F357Y; source: Expi293F, transiently expressed, purified from culture medium (Ni-NTA, SEC)
T2 sequence (looked up): T1 sequence (looked up) with F324Y

[3] = biological target: T3, human LRRTM2 LRR domain, D352A mutant (human, UniProt O43300 34-371, D352A); test: as above
T3 construct: signal peptide in the construct; human LRRTM2 LRR domain, residues 1-371 cloned, with D352A; also called LRRTM2 D352A; source: Expi293F, transiently expressed, purified from culture medium (Ni-NTA, SEC)
T3 sequence (looked up): T1 sequence (looked up) with D319A

[4] = biological target: T4, human LRRTM2 LRR domain, H355A mutant (human, UniProt O43300 34-371, H355A); test: as above
T4 construct: signal peptide in the construct; human LRRTM2 LRR domain, residues 1-371 cloned, with H355A; Neuraminidase was added before crystallization to trim N-linked glycans; also called LRRTM2^H355A; hLRRTM2^H355A; source: Expi293F, transiently expressed, purified from culture medium (Ni-NTA, SEC); for crystallization coexpressed with Nrxn1β (–S4) LNS and separated by SEC
T4 sequence (looked up): T1 sequence (looked up) with H322A

[5] = biological target: T1, human LRRTM2 LRR domain, wild type; test: ITC; MicroCal Auto-iTC, 25 °C; LRRTM2 (15 µM) in the cell, Nrxn1β (200 µM) injected; 20 mM Hepes-NaOH pH 7.5, 150 mM NaCl, 2 mM CaCl2, 0.005% Tween-20, no BSA; one-site model

- Kd [1]: > 160 µM
B1: human Nrxn1β LNS domain (–S4), R206A mutant (domain or fragment)
chain: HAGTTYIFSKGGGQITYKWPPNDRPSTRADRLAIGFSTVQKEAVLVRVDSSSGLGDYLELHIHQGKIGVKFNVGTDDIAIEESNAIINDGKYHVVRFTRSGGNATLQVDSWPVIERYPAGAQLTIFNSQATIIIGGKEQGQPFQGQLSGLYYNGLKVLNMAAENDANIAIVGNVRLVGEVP
modifications: Ca2+-bound (2 mM CaCl2). Entry P58400 carries the S4 insert at 205-234, so paper (-S4) residues 205-266 are entry 235-296 (R206 = R236).

- Kd [1]: > 80 µM
B2: human Nrxn1β LNS domain with the S4 insert (+S4) (domain or fragment)
chain: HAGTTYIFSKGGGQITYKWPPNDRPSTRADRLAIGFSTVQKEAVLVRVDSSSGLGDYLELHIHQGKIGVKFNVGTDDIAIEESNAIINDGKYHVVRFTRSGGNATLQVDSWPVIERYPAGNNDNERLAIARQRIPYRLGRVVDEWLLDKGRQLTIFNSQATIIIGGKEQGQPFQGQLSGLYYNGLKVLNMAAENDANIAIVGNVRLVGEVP
modifications: Ca2+-bound (2 mM CaCl2). S4 insert is entry residues 205-234.

- fold decrease in affinity against wild-type LRRTM2 [2]: ~5 fold
- Kd [1]: 4 µM
- fold decrease in affinity against wild-type LRRTM2 [3]: > 9 fold
- Kd [4]: 4.3 µM
- Kd [5]: 4.2 µM
B3: human Nrxn1β LNS domain (–S4), wild type (domain or fragment)
chain: not shown
notes: human neurexin-1β LNS domain, splice variant without the S4 insert, residues 86-266; numbers count on: human Nrxn1β (–S4) (NM_001330092.1); also called Nrxn1β (–S4); Nrxin1β (–S4); source: Expi293F, transiently expressed, purified from culture medium (Ni-NTA, SEC); for crystallization coexpressed with LRRTM2 LRR and separated by SEC
